Laboratory results as given in article PMC8202330 (2021).

B1: MYC-SCOC (isoform 3) WT [human] / GFP-GABARAP [not stated] (parent complex)
chain 1: MDGSRKEEEEDSTFTNISLADDIDHSSRILYPRPKSLLPKMMNADMDVDAENQVELEEKTRLINQVLELQHTLEDLSARVDAVKEENLKLKSENQVLGQYIENLMSASSVFQTTDTKSKRK
chain 2: MKFVYKEEHPFEKRRSEGEKIRKKYPDRVPVIVEKAPKARIGDLDKKKYLVPSDLTVGQFYFLIRKRIHLRAEDALFFFVNNVIPPTSATMGQLYQEHHEEDFFLYIAYSDESVYGL

Variants of: B1
Assay: GFP-Trap immunoprecipitation, Western blot quantification; HEK293A lysates mixed prior to IP; mean ± s.d.; n = 3; read off a plot

Going from chain 1 S12E, chain 1 T13E, chain 1 T15E, chain 1 S18E to chain 1 S18E, the response falls from about 100 % binding to about 18 % binding.

In the case of chain 1 S12E, chain 1 T15E, the response is reported as about 63 % binding.
